The text below walks through data of patent publication US20110016537A1, “Cellular model of tauopathies for lead identification and drug discovery” (Georg-August-Universitat Gottingen Stifung offentl, priority 2003, published 2011).

Assay [1] has as its target wild-type human tau 441 with GFP fused at the N-terminal (human) (UniProt P10636). In words: immunocytochemistry, SHSY5Y cells 36 h after transfection.
For assay [2], the target named is tau mutant M123 (triple mutant, M1+M2+M3) with GFP fused at the N-terminal (human) (UniProt P10636). Described as above.
For assay [3] the target is unchanged. In words: immunocytochemistry, transfected SHSY5Y cells.

tau mutant M123 (triple mutant, M1+M2+M3) with GFP fused at the N-terminal (human), sequence (P10636 other isoform, or with tags, fused parts or gaps mutant): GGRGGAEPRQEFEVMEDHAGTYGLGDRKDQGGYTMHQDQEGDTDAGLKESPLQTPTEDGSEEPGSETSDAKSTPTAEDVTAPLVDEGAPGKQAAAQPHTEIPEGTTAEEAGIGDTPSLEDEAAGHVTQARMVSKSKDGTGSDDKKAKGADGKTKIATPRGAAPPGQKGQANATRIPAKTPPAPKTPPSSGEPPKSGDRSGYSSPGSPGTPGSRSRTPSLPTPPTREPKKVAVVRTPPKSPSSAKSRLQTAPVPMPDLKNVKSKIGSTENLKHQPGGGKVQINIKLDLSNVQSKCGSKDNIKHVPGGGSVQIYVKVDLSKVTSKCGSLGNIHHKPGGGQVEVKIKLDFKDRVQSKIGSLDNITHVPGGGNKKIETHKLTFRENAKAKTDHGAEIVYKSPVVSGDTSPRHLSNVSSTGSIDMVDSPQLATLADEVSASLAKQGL
wild-type human tau 441 with GFP fused at the N-terminal (human), sequence (P10636 other isoform, or with tags, fused parts or gaps): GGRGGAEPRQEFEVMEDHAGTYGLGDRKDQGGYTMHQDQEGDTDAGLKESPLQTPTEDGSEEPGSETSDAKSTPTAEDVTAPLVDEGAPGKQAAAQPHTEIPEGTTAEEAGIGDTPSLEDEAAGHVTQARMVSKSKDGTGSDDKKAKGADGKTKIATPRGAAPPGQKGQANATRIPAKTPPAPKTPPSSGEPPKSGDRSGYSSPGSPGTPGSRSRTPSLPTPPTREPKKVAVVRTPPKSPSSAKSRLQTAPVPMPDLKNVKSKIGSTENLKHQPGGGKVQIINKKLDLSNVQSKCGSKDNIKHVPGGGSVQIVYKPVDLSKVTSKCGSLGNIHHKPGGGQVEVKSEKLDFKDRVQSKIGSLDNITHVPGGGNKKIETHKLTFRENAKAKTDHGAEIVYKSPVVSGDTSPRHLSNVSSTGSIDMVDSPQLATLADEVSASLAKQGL

With AT8 antibody (S202/T205 specific), the percentage of transfected cells with AT8 immunolabeling was 9.17% in assay [1] and 83.2% in assay [2].

For AT180 antibody (phosphoepitope T231), the percentage of transfected cells AT180 immunopositive in assay [3] is 22.1%.
